Literature values in paper PMC3113683 (Biochemistry, 2009).

Legend:
[1] = system: T cell receptor (TCR) signaling; settings: cited from earlier work
[2] = system: PEP; settings: immunoprecipitated full-length PEP vs amino acids 1−290; ref [5]; cited from earlier work
[3] = system: LYP; settings: ref [7], [18]; cited from earlier work

B1: PEP: mouse homologue of LYP called PEST-enriched phosphatase (protein, UniProt P29352 1-802, looked up)
Tyrosine-protein phosphatase …: MDQREILQQLLKEAQKKKLNSEEFASEFLKLKRQSTKYKADKIYPTTVAQRPKNIKKNRYKDILPYDHSLVELSLLTSDEDSSYINASFIKGVYGPKAYIATQGPLSTTLLDFWRMIWEYRILVIVMACMEFEMGKKKCERYWAEPGETQLQFGPFSISCEAEKKKSDYKIRTLKAKFNNETRIIYQFHYKNWPDHDVPSSIDPILQLIWDMRCYQEDDCVPICIHCSAGCGRTGVICAVDYTWMLLKDGIIPKNFSVFNLIQEMRTQRPSLVQTQEQYELVYSAVLELFKRHMDVISDNHLGREIQAQCSIPEQSLTVEADSCPLDLPKNAMRDVKTTNQHSKQGAEAESTGGSSLGLRTSTMNAEEELVLHSAKSSPSFNCLELNCGCNNKAVITRNGQARASPVVGEPLQKYQSLDFGSMLFGSCPSALPINTADRYHNSKGPVKRTKSTPFELIQQRKTNDLAVGDGFSCLESQLHEHYSLRELQVQRVAHVSSEELNYSLPGACDASCVPRHSPGALRVHLYTSLAEDPYFSSSPPNSADSKMSFDLPEKQDGATSPGALLPASSTTSFFYSNPHDSLVMNTLTSFSPPLNQETAVEAPSRRTDDEIPPPLPERTPESFIVVEEAGEPSPRVTESLPLVVTFGASPECSGTSEMKSHDSVGFTPSKNVKLRSPKSDRHQDGSPPPPLPERTLESFFLADEDCIQAQAVQTSSTSYPETTENSTSSKQTLRTPGKSFTRSKSLKIFRNMKKSVCNSSSPSKPTERVQPKNSSSFLNFGFGNRFSKPKGPRNPPSAWNM
In the case of B1, the “Inhibition of T cell receptor signaling” value ([1]; T cells, ref [4]-[8]) is listed as “potently inhibit T cell receptor (TCR) signaling” and the “Catalytic activity vs catalytic domain alone” value [2] is listed as “much lower than the activity of the catalytic domain alone”.

B2: LYP-W620: genetic variant of LYP carrying Trp620 instead of Arg620 in the C-terminal domain (protein, UniProt Q9Y2R2 1-807, looked up, variant R620W)
Tyrosine-protein phosphatase …: MDQREILQKFLDEAQSKKITKEEFANEFLKLKRQSTKYKADKTYPTTVAEKPKNIKKNRYKDILPYDYSRVELSLITSDEDSSYINANFIKGVYGPKAYIATQGPLSTTLLDFWRMIWEYSVLIIVMACMEYEMGKKKCERYWAEPGEMQLEFGPFSVSCEAEKRKSDYIIRTLKVKFNSETRTIYQFHYKNWPDHDVPSSIDPILELIWDVRCYQEDDSVPICIHCSAGCGRTGVICAIDYTWMLLKDGIIPENFSVFSLIREMRTQRPSLVQTQEQYELVYNAVLELFKRQMDVIRDKHSGTESQAKHCIPEKNHTLQADSYSPNLPKSTTKAAKMMNQQRTKMEIKESSSFDFRTSEISAKEELVLHPAKSSTSFDFLELNYSFDKNADTTMKWQTKAFPIVGEPLQKHQSLDLGSLLFEGCSNSKPVNAAGRYFNSKVPITRTKSTPFELIQQRETKEVDSKENFSYLESQPHDSCFVEMQAQKVMHVSSAELNYSLPYDSKHQIRNASNVKHHDSSALGVYSYIPLVENPYFSSWPPSGTSSKMSLDLPEKQDGTVFPSSLLPTSSTSLFSYYNSHDSLSLNSPTNISSLLNQESAVLATAPRIDDEIPPPLPVWTPESFIVVEEAGEFSPNVPKSLSSAVKVKIGTSLEWGGTSEPKKFDDSVILRPSKSVKLRSPKSELHQDRSSPPPPLPERTLESFFLADEDCMQAQSIETYSTSYPDTMENSTSSKQTLKTPGKSFTRSKSLKILRNMKKSICNSCPPNKPAESVQSNNSSSFLNFGFANRFSKPKGPRNPPPTWNI
For B2, the “Effect of variant on signaling” value ([1]; ref [7], [18]) is given as “gain-of-function inhibitor of signaling” and the “Phosphatase activity of variant” value [3] is given as “increased phosphatase activity”.
